Each block holds one binder with its values, some of them ahead of it.
Key:
[1] = target: T1, oligomerized synthetic human Aβ1-42 peptide (oligo-Aβ42) (human, N-terminal biotin (biotinylated peptide used in the cell, neuron and streptavidin pull-down assays)); experiment: oligo-Aβ42 on transfected HEK293 cells, fluorescence, control-vector cells subtracted
T1 construct: Soluble oligomer mixture, mainly high-n oligomers; About 10-20% stays as monomer or low-n oligomer; Concentrations are monomer equivalents of total peptide; this is probably a misprint, since the peptide used was bought as human Aβ1-42; Both biotinylated and non-biotinylated peptides were obtained; also called Aβ42 oligomers; oligomerized Aβ42
Excerpt: (§1) Bottom: bar graphs of average band intensities±SEM from experiments such as that shown in FIG. 10C (n=3; see also FIG. 2H). […] Top, right: Western blot with anti-Aβ antibodies specific for oligomeric forms (OMAB; see FIG. 10D); Bottom, left: quantification of Aβ42 binding. Normalized average band intensities±SEM (n=3).
(§2) The bound Aβ peptides were visualized with streptavidin-Alexa fluorophore conjugates (Alexa 488, 598 or 647; wavelength choice depending on experiments) (J. Lauren, et al. (2009) “Cellular prion protein mediates impairment of synaptic plasticity by amyloid-beta oligomers.” Nature 457, 1128). […] Fluorescent images were captured with fixed illumination and exposure time using a Nikon 20× objective of numerical aperture 0.75, and then fluorescence intensity was quantified using ImageJ software (NIH). In each experiment, values from control vector transfected cells were used as background, and subtracted from those of experimental cells.

[2] = target: T1, oligomerized synthetic human Aβ1-42 …; experiment: Aβ42 oligomers on transfected HEK293 cells, fluorescence staining
Excerpt: as §2

[3] = target: T1, oligomerized synthetic human Aβ1-42 …; experiment: synthetic Aβ42 oligomers immunoprecipitated with PirB-Fc proteins, Western blot α-Aβ (6E10), fully reduced
[4] = target: T1, oligomerized synthetic human Aβ1-42 …; experiment: Aβ42 oligomers pulled down with purified Fc fusion protein, Western blot for Aβ, normalised band intensity (n=3)
Excerpt: as §1, with “Data are mean±SEM (n=5). […] Mean±SEM. […] Bottom:” for “Bottom:”

[5] = target: T1, oligomerized synthetic human Aβ1-42 …; experiment: oligomerized Aβ42 immunoprecipitated with soluble Fc fusion protein, Western blot α-Aβ (4G8) and α-oligo Aβ (OMAB)
Excerpt: as §1, with “Mean±SEM. […] Bottom:” for “Bottom:”
The Aβ signals were quantified as described above.

binding result [1]: no binding (tested: 200 nM)
B1: human killer immune receptor Kir (3DL1) expressed in HEK293 cells (receptor, UniProt P43629 22-444, looked up)
chain: HMGGQDKPFLSAWPSAVVPRGGHVTLRCHYRHRFNNFMLYKEDRIHIPIFHGRIFQESFNMSPVTTAHAGNYTCRGSHPHSPTGWSAPSNPVVIMVTGNHRKPSLLAHPGPLVKSGERVILQCWSDIMFEHFFLHKEGISKDPSRLVGQIHDGVSKANFSIGPMMLALAGTYRCYGSVTHTPYQLSAPSDPLDIVVTGPYEKPSLSAQPGPKVQAGESVTLSCSSRSSYDMYHLSREGGAHERRLPAVRKVNRTFQADFPLGPATHGGTYRCFGSFRHSPYEWSDPSDPLLVSVTGNPSSSWPSPTEPSSKSGNPRHLHILIGTSVVIILFILLLFFLLHLWCSNKKNAAVMDQEPAGNRTANSEDSDEQDPEEVTYAQLDHCVFTQRKITRPSQRPKTPPTDTILYTELPNAKPRSKVVSCP
notes: whole, on cells

binding result [2]: no binding (tested: 200 nM)
B2: human LilrB1 expressed in HEK293 cells (receptor, UniProt Q8NHL6 24-650, looked up)
chain: GHLPKPTLWAEPGSVITQGSPVTLRCQGGQETQEYRLYREKKTALWITRIPQELVKKGQFPIPSITWEHAGRYRCYYGSDTAGRSESSDPLELVVTGAYIKPTLSAQPSPVVNSGGNVILQCDSQVAFDGFSLCKEGEDEHPQCLNSQPHARGSSRAIFSVGPVSPSRRWWYRCYAYDSNSPYEWSLPSDLLELLVLGVSKKPSLSVQPGPIVAPEETLTLQCGSDAGYNRFVLYKDGERDFLQLAGAQPQAGLSQANFTLGPVSRSYGGQYRCYGAHNLSSEWSAPSDPLDILIAGQFYDRVSLSVQPGPTVASGENVTLLCQSQGWMQTFLLTKEGAADDPWRLRSTYQSQKYQAEFPMGPVTSAHAGTYRCYGSQSSKPYLLTHPSDPLELVVSGPSGGPSSPTTGPTSTSGPEDQPLTPTGSDPQSGLGRHLGVVIGILVAVILLLLLLLLLFLILRHRRQGKHWTSTQRKADFQHPAGAVGPEPTDRGLQWRSSPAADAQEENLYAAVKHTQPEDGVEMDTRSPHDEDPQAVTYAEVKHSRPRREMASPPSPLSGEFLDTKDRQAEEDRQMDTEAAASEAPQDVTYAQLHSLTLRREATEPPPSQEGPSPAVPSIYATLAIH
notes: whole, on cells; not shown: C-terminal Myc tag

binding result [3]: no binding
B3: D3D6 (PirB-Fc) (Fc fusion)
chain: GNLQKPTIKAEPGSVITSKRAMTIWCQGNLDAEVYFLHNEKSQKTQSTQTLQEPGNKGKFFIPSVTLQHAGQYRCYCYGSAGWSQPSDTLELVVTGIYEYYEPRLSVLPSPVVTAGGNMTLHCASDFPYDKFILTKEDKKFGNSLDTEHISSSGQYRALFIIGPTTPTHTGAFRCYGYYKNAPQLWSVPSALQQILISGLSKKPSLLTHQGHILDPGMTLTLQCFSDINYDRFALHKVGGADIMQHSSQQTDTGFSVANFTLGYVSSSTGGQYRCYGAHNLSSEWSASSEPLDILITGQLPLTPSLSVQPNHTVHSGETVSLLCWSMDSVDTFILSKEGSAQQPLRLKSKSHDQQSQAEFSMSAVTSHLSGTYRCYGAQDSSFYLLSSASAPVELTVSGPIETSTPPPTMSMPLGGLHMYLKA
modifications: Fc-mediated homodimer; one chain given
notes: not in the list MOLECULES; also called PirB (D3D6)-Fc; PirB:221-643 (D3D6); not shown: human IgG1-Fc of vector pFUSE-hIgG1e3-Fc2 (InvivoGen) and the cloning-junction residues

binding result [4]: no binding
B4: LilrB2 (D3D4)-Fc, LilrB2 residues 219-458 fused to human IgG1-Fc (Fc fusion)
chain: PGVSKKPSLSVQPGPVVAPGESLTLQCVSDVGYDRFVLYKEGERDLRQLPGRQPQAGLSQANFTLGPVSRSYGGQYRCYGAHNLSSECSAPSDPLDILITGQIRGTPFISVQPGPTVASGENVTLLCQSWRQFHTFLLTKAGAADAPLRLRSIHEYPKYQAEFPMSPVTSAHAGTYRCYGSLNSDPYLLSHPSEPLELVVSGPSMGSSPPPTGPISTPAGPEDQPLTPTGSDPQSGLGRH
notes: not shown: human IgG1-Fc from the pFUSE-hIgG1e3-Fc2 vector (InvivoGen); exact limits, linker and any engineered changes are not sta

binding result [5]: no binding
B5: PirB (D5D6)-Fc, PirB residues 419-643 fused to human IgG1-Fc (Fc fusion)
chain: GLSKKPSLLTHQGHILDPGMTLTLQCFSDINYDRFALHKVGGADIMQHSSQQTDTGFSVANFTLGYVSSSTGGQYRCYGAHNLSSEWSASSEPLDILITGQLPLTPSLSVQPNHTVHSGETVSLLCWSMDSVDTFILSKEGSAQQPLRLKSKSHDQQSQAEFSMSAVTSHLSGTYRCYGAQDSSFYLLSSASAPVELTVSGPIETSTPPPTMSMPLGGLHMYLKA
notes: Used as the negative control in the pull-down assays; not shown: human IgG1-Fc from the pFUSE-hIgG1e3-Fc2 vector (InvivoGen); exact limits, linker and any engineered changes are not sta

Source: patent US20160009782A1 (Stanford University, published 2016)
